Each sequence was assayed against FGFR3 (UniProt P22607) (assay: phosphorylation enrichment, bacterial display (enrichment ratio); higher = better substrate or ligand; peptides without Tyr show the background).
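Note: 11-residue human phosphosite peptides and single-mutation variants displayed on the E. coli surface, counted by deep sequencing, each peptide's frequency after selection divided by its frequency in the unselected input library; frequency after pTyr selection over input frequency; kinase dosed for 20-30% of maximal phosphorylation in three min.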

FGFR3, sequence (P22607 whole entry, looked up): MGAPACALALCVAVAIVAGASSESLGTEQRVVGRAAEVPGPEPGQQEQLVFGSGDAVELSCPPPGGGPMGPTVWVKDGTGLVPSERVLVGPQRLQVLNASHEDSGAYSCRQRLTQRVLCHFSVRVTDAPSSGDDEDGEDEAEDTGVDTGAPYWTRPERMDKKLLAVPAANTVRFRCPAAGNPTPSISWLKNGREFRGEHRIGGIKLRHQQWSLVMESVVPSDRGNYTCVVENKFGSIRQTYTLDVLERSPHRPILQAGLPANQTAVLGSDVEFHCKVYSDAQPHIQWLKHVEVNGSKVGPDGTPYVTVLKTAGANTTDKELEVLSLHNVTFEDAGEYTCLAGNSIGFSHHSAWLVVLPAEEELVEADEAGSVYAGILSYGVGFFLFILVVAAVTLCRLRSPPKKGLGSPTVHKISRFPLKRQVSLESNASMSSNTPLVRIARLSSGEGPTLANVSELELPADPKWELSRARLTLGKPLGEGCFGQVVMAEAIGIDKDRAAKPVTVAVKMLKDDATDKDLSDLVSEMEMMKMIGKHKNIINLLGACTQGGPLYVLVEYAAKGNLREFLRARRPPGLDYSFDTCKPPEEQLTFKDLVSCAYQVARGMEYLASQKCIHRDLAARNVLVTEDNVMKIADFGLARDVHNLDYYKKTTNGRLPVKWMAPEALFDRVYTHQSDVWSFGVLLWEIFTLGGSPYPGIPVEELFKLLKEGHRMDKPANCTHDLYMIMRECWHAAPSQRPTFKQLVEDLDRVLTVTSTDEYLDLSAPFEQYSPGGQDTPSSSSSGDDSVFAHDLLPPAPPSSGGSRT

Sequence | phosphorylation enrichment
SLIDGYYRLTE [JAK2_Y372_A377E] | 0.997
FNVLQYVVPKV [EIF3A_Y382_E386K] | 1.02
PANMVYSTVEI [SLAMF7_Y304_T302M] | 2.26
GMTLSYLFREL [NDUFS8_Y74_P79L] | 0.604
FGDTPYIPFRD [CDC14C_Y132] | 0.662
YRGYSYDDIPD [TMEM230_Y112] | 0.662
GYGGGYGGVLT [KRT19_Y65_A60G] | 0.511
HTVEDYQAIVD [CCT7_Y263] | 1.06
HSHTRYERNIE [F2_Y434_R431H] | 0.555
ERIEFYELDKK [PMM2_Y145] | 0.76
RELSWYRGRRP [HESX1_Y106] | 0.563
ALKKPYSVLFK [RPF2_Y59_G60S_YF] | 0.617
QMVGMYASFYM [AVPR2_Y124_S127F] | 1
DVFVSYDCGKS [SORL1_Y139_Y141C_YF] | 0.61
DEYLEYRRIVG [FAM221A_Y20] | 0.968
RHLQEYQDLLN [GFAP_Y349] | 0.477
LEGEEYRMSGE [KRT3_Y511] | 0.929

Sequence | phosphorylation enrichment
PSNTEYPGPHS [TP63_Y171_D170E] | 0.497
IVVVPYEPPEV [TP53_Y220_S215I] | 0.665
TFRPPYFHRNC [HGD_Y333_YF] | 0.771
SLGKGYSVGGC [MC4R_Y35_D37V] | 0.627
EPNSRYTFKLE [USH2A_Y3745_YF] | 0.596
QELRRYLKSSV [MICA_Y194_G198S] | 0.483
HLGNQYVNVMN [SLC3A1_Y461_R456H] | 0.643
LSKDLYLISQM [LARP4_Y141] | 1.41
ISHVAYRVLGK [TRRAP_Y892] | 0.402
ISMAGYSIPEL [EDAR_Y406_T403M] | 0.54
RPASVYTKRCS [CPT2_Y508] | 0.533
EFENSCIFDIN [GAB1_Y83_Y83C] | 0.632
HFGNNYTDVLQ [MACC1_Y803_R804T_YF] | 0.733
PADQAYSWFQH [NDST1_Y711_R709Q_YF] | 4.33
LFSINYLHFGD [KDM4C_Y201_E206D_YF] | 1.22
KIITDYFVDMK [MPP4_Y566_V562I_YF] | 0.783

These sequences were tested on Fer (mouse) in the same assay as above.

Sequence | phosphorylation enrichment
SLIDGYYRLTE [JAK2_Y372_A377E] | 0.425
FNVLQYVVPKV [EIF3A_Y382_E386K] | 0.348
PANMVYSTVEI [SLAMF7_Y304_T302M] | 20.3
GMTLSYLFREL [NDUFS8_Y74_P79L] | 0.431
FGDTPYIPFRD [CDC14C_Y132] | 0.542
YRGYSYDDIPD [TMEM230_Y112] | 0.439
GYGGGYGGVLT [KRT19_Y65_A60G] | 0.419
HTVEDYQAIVD [CCT7_Y263] | 0.85
HSHTRYERNIE [F2_Y434_R431H] | 0.655
ERIEFYELDKK [PMM2_Y145] | 0.742
RELSWYRGRRP [HESX1_Y106] | 0.693
ALKKPYSVLFK [RPF2_Y59_G60S_YF] | 0.502
QMVGMYASFYM [AVPR2_Y124_S127F] | 3.65
DVFVSYDCGKS [SORL1_Y139_Y141C_YF] | 0.521
DEYLEYRRIVG [FAM221A_Y20] | 0.51
RHLQEYQDLLN [GFAP_Y349] | 0.389
LEGEEYRMSGE [KRT3_Y511] | 0.937

Sequence | phosphorylation enrichment
PSNTEYPGPHS [TP63_Y171_D170E] | 0.498
IVVVPYEPPEV [TP53_Y220_S215I] | 0.554
TFRPPYFHRNC [HGD_Y333_YF] | 0.626
SLGKGYSVGGC [MC4R_Y35_D37V] | 0.484
EPNSRYTFKLE [USH2A_Y3745_YF] | 0.397
QELRRYLKSSV [MICA_Y194_G198S] | 0.292
HLGNQYVNVMN [SLC3A1_Y461_R456H] | 0.603
LSKDLYLISQM [LARP4_Y141] | 0.918
ISHVAYRVLGK [TRRAP_Y892] | 0.338
ISMAGYSIPEL [EDAR_Y406_T403M] | 0.455
RPASVYTKRCS [CPT2_Y508] | 0.459
EFENSCIFDIN [GAB1_Y83_Y83C] | 0.42
HFGNNYTDVLQ [MACC1_Y803_R804T_YF] | 0.573
PADQAYSWFQH [NDST1_Y711_R709Q_YF] | 26.6
LFSINYLHFGD [KDM4C_Y201_E206D_YF] | 0.813
KIITDYFVDMK [MPP4_Y566_V562I_YF] | 0.456

Each sequence was assayed against Fes (UniProt P07332) in the same assay as above.
Fes, sequence (P07332 whole entry, looked up): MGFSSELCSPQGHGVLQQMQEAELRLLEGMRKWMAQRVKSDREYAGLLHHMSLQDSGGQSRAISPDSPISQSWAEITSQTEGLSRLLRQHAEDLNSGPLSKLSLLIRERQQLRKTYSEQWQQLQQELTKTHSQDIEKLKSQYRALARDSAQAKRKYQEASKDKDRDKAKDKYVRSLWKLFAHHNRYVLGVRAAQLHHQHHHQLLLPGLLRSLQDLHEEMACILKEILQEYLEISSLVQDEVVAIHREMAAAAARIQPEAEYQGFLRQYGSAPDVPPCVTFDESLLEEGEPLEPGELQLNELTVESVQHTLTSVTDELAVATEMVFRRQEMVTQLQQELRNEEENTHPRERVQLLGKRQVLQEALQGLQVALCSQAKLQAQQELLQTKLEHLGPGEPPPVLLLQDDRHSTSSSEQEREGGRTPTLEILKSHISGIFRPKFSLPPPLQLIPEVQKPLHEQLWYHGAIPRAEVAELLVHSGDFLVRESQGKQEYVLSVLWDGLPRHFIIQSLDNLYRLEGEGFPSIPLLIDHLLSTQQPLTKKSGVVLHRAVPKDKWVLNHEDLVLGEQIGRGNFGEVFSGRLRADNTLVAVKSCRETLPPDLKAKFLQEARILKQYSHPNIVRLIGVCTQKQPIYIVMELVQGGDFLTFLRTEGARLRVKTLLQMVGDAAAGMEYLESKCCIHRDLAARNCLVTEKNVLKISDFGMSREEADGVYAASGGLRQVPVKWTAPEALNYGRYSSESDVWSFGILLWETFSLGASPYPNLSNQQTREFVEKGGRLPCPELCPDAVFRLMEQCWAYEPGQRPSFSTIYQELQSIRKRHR

Sequence | phosphorylation enrichment
SLIDGYYRLTE [JAK2_Y372_A377E] | 1.1
FNVLQYVVPKV [EIF3A_Y382_E386K] | 0.797
PANMVYSTVEI [SLAMF7_Y304_T302M] | 1.77
GMTLSYLFREL [NDUFS8_Y74_P79L] | 0.905
FGDTPYIPFRD [CDC14C_Y132] | 0.905
YRGYSYDDIPD [TMEM230_Y112] | 0.964
GYGGGYGGVLT [KRT19_Y65_A60G] | 0.641
HTVEDYQAIVD [CCT7_Y263] | 2.21
HSHTRYERNIE [F2_Y434_R431H] | 0.85
ERIEFYELDKK [PMM2_Y145] | 1.09
RELSWYRGRRP [HESX1_Y106] | 0.794
ALKKPYSVLFK [RPF2_Y59_G60S_YF] | 0.968
QMVGMYASFYM [AVPR2_Y124_S127F] | 1.65
DVFVSYDCGKS [SORL1_Y139_Y141C_YF] | 1.04
DEYLEYRRIVG [FAM221A_Y20] | 0.881
RHLQEYQDLLN [GFAP_Y349] | 0.807
LEGEEYRMSGE [KRT3_Y511] | 1.41

Sequence | phosphorylation enrichment
PSNTEYPGPHS [TP63_Y171_D170E] | 0.832
IVVVPYEPPEV [TP53_Y220_S215I] | 1.08
TFRPPYFHRNC [HGD_Y333_YF] | 0.869
SLGKGYSVGGC [MC4R_Y35_D37V] | 0.898
EPNSRYTFKLE [USH2A_Y3745_YF] | 0.963
QELRRYLKSSV [MICA_Y194_G198S] | 0.6
HLGNQYVNVMN [SLC3A1_Y461_R456H] | 0.902
LSKDLYLISQM [LARP4_Y141] | 1.63
ISHVAYRVLGK [TRRAP_Y892] | 0.597
ISMAGYSIPEL [EDAR_Y406_T403M] | 0.787
RPASVYTKRCS [CPT2_Y508] | 0.826
EFENSCIFDIN [GAB1_Y83_Y83C] | 0.963
HFGNNYTDVLQ [MACC1_Y803_R804T_YF] | 0.967
PADQAYSWFQH [NDST1_Y711_R709Q_YF] | 2.91
LFSINYLHFGD [KDM4C_Y201_E206D_YF] | 1.56
KIITDYFVDMK [MPP4_Y566_V562I_YF] | 1.15

What follows are sequences tested against Fyn (UniProt P06241) in the same assay as above.
Fyn, sequence (P06241 whole entry, looked up): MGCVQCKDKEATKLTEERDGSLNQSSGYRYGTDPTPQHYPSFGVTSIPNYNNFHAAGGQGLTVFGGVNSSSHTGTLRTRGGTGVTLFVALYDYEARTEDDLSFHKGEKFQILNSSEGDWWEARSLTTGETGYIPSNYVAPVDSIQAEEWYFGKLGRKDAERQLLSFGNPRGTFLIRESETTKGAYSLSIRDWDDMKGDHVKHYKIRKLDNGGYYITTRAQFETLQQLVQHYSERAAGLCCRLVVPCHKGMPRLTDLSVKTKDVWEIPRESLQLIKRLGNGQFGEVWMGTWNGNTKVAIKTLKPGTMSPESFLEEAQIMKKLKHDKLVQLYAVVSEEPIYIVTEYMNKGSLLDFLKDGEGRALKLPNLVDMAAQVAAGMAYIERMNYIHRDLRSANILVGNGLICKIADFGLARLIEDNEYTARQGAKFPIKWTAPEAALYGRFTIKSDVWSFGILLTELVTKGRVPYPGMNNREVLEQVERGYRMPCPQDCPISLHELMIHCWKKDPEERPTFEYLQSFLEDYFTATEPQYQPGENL

Sequence | phosphorylation enrichment
SLIDGYYRLTE [JAK2_Y372_A377E] | 0.427
FNVLQYVVPKV [EIF3A_Y382_E386K] | 0.465
PANMVYSTVEI [SLAMF7_Y304_T302M] | 10.6
GMTLSYLFREL [NDUFS8_Y74_P79L] | 0.451
FGDTPYIPFRD [CDC14C_Y132] | 0.55
YRGYSYDDIPD [TMEM230_Y112] | 0.442
GYGGGYGGVLT [KRT19_Y65_A60G] | 0.42
HTVEDYQAIVD [CCT7_Y263] | 0.773
HSHTRYERNIE [F2_Y434_R431H] | 0.446
ERIEFYELDKK [PMM2_Y145] | 0.484
RELSWYRGRRP [HESX1_Y106] | 0.781
ALKKPYSVLFK [RPF2_Y59_G60S_YF] | 0.419
QMVGMYASFYM [AVPR2_Y124_S127F] | 7.85
DVFVSYDCGKS [SORL1_Y139_Y141C_YF] | 0.495
DEYLEYRRIVG [FAM221A_Y20] | 1.03
RHLQEYQDLLN [GFAP_Y349] | 0.616
LEGEEYRMSGE [KRT3_Y511] | 0.797

Sequence | phosphorylation enrichment
PSNTEYPGPHS [TP63_Y171_D170E] | 0.507
IVVVPYEPPEV [TP53_Y220_S215I] | 0.43
TFRPPYFHRNC [HGD_Y333_YF] | 0.473
SLGKGYSVGGC [MC4R_Y35_D37V] | 0.432
EPNSRYTFKLE [USH2A_Y3745_YF] | 0.408
QELRRYLKSSV [MICA_Y194_G198S] | 0.36
HLGNQYVNVMN [SLC3A1_Y461_R456H] | 0.483
LSKDLYLISQM [LARP4_Y141] | 0.828
ISHVAYRVLGK [TRRAP_Y892] | 0.394
ISMAGYSIPEL [EDAR_Y406_T403M] | 0.448
RPASVYTKRCS [CPT2_Y508] | 0.623
EFENSCIFDIN [GAB1_Y83_Y83C] | 0.483
HFGNNYTDVLQ [MACC1_Y803_R804T_YF] | 0.517
PADQAYSWFQH [NDST1_Y711_R709Q_YF] | 1.38
LFSINYLHFGD [KDM4C_Y201_E206D_YF] | 0.561
KIITDYFVDMK [MPP4_Y566_V562I_YF] | 0.513

From the supplement of paper PMC10065799, “High-throughput profiling of sequence recognition by tyrosine kinases and SH2 domains using bacterial peptide display” (eLife, 2023)
